PMC6995573, “Critical Factors in Human Antizymes that Determine the Differential Binding, Inhibition, and Degradation of Human Ornithine Decarboxylase” (Biomolecules, 2019)

T1: Human ornithine decarboxylase (human, UniProt P11926 2-421)
T1 sequence: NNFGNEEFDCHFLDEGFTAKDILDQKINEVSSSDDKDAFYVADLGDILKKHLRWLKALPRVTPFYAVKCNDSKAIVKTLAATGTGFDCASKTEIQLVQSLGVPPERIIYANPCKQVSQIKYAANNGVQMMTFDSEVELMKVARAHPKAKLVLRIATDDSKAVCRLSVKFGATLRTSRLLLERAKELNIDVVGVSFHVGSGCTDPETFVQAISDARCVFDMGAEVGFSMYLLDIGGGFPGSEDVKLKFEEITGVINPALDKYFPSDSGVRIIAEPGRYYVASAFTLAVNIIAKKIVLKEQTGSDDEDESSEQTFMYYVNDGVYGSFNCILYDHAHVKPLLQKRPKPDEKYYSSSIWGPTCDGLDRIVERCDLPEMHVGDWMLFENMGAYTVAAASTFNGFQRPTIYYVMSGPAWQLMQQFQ

B1: AZ3_WT (natural protein, human, UniProt Q9UMX2 1-235, looked up)
chain: MPCKRCRPSVYSLSYIKRGKTRNYLYPIWSPYAYYLYCYKYRITLREKMLPRCYKSITYKEEEDLTLQPRSCLQCSESLVGLQEGKSTEQGNHDQLKELYSAGNLTVLATDPLLHQDPVQLDFHFRLTSQTSAHWHGLLCDRRLFLDIPYQALDQGNRESLTATLEYVEEKTNVDSVFVNFQNDRNDRGALLRAFSYMGFEVVRPDHPALPPLDNVIFMVYPLERDVGHLPSEPP
notes: antizyme 3 (AZ3), human; also called antizyme 3
B2: AZ_(95–228) (domain or fragment)
chain: not shown
notes: also called C-terminal domain of AZ1
B3: AZ_(95–228)_K153A/D154A/E161A/E164A/E165A (domain or fragment)
chain: not shown
B4: AZ_(95–228)_E142A/K153A/D154A/E161A/E164A/E165A/H171A/K178A (domain or fragment)
chain: not shown
notes: also called hybrid octuple mutant
B5: AZ_(95–228)_E164A (domain or fragment)
chain: not shown
B6: AZ_(95–228)_D154A (domain or fragment)
chain: not shown
B7: AZ_(95–228)_E142A/H171A/K178A (domain or fragment)
chain: not shown
notes: also called non-α1 mutant
B8: AZ_(95–228)_E165A (domain or fragment)
chain: not shown
B9: AZ_(95–228)_E142A (domain or fragment)
chain: not shown
B10: AZ_(95–228)_K153A (domain or fragment)
chain: not shown
B11: AZ_(95–228)_H171A (domain or fragment)
chain: not shown
B12: AZ_(95–228)_K153A/E164A/E165A (domain or fragment)
chain: not shown
B13: AZ_(95–228)_E161A (domain or fragment)
chain: not shown
B14: AZ_(95–228)_K178A (domain or fragment)
chain: not shown
B15: AZ1_D124S/E150Q/Q166K/N179D (natural protein)
chain: not shown
notes: antizyme 1 (AZ1), human; also called AZ1_4M
B16: AZ1_D124S/E150Q/Q166K/H171S/N179D (natural protein)
chain: not shown
notes: antizyme 1 (AZ1), human; also called AZ1_5M; AZ1_D124S/E150Q/Q166K/N179D/H171S
B17: AZ1_WT (natural protein)
chain: not shown
notes: antizyme 1 (AZ1), human; also called antizyme 1

The binders below were run against T1, Human ornithine decarboxylase (assay: cell-based or functional assay). Details: not given.

IC50 of inhibition of ODC enzyme activity by AZ [µM] | Binder
0.61 | B1

Each binder was assayed against T1, Human ornithine decarboxylase (assay: AUC; sedimentation velocity, 20 °C, 30 mM Tris-HCl pH 7.4, 25 mM NaCl; ODC fixed at 0.3 mg/mL, AZ 0.02-0.19 mg/mL (AZ/ODC molar ratio 0.25 to 3); all data sets fitted to the AB hetero-association model in SEDPHAT). Details: both partners purified.

Kd [µM] | Binder
1.15 ± 0.01 | B2
6.81 ± 0.06 | B3
12.4 ± 0.7 | B4
1.68 ± 0.01 | B5
1.7 ± 0.02 | B6
11.5 ± 0.6 | B7
1.73 ± 0.02 | B8
2.2 ± 0.02 | B9
1.21 ± 0.01 | B10
2.03 ± 0.02 | B11
6.58 ± 0.02 | B12
1.11 ± 0.01 | B13
3.03 ± 0.02 | B14

Target: T1, Human ornithine decarboxylase
Assay: cell-based or functional assay
Details: not given
Remark: another data set of the same source

IC50 of inhibition of ODC enzyme activity by AZ [µM] | Binder
0.16 | B2
0.3 | B5
0.27 | B6
0.3 | B8
0.31 | B9
0.4 | B10
0.27 | B11
4.13 | B12
0.25 | B13
0.31 | B14

Target: T1, Human ornithine decarboxylase
Assay: cell-based or functional assay
Details: not given
Remark: another data set of the same source

IC50 of inhibition of ODC enzyme activity by AZ [µM] | Binder
0.55 | B15
0.49 | B16
0.23 | B17

Target: T1, Human ornithine decarboxylase
Assay: AUC; sedimentation velocity, 20 °C, 30 mM Tris-HCl pH 7.4, 25 mM NaCl; ODC fixed at 0.3 mg/mL, AZ 0.02-0.19 mg/mL (AZ/ODC molar ratio 0.25 to 3); all data sets fitted to the AB hetero-association model in SEDPHAT
Details: both partners purified
Remark: another data set of the same source

Kd [µM] | Binder
1.52 ± 0.01 | B1
0.95 ± 0.03 | B15
1.78 ± 0.02 | B16
0.22 ± 0.01 | B17
